Test results from patent publication US20240165165A1, “PHARMACEUTICAL COMPOSITIONS AND THEIR METHODS OF USE” (The Trustees of Indiana University, priority 2021, published 2024).

Tests used:
EO771 cells = assay: Western blot of proteins in treated tumor cells; type: cell-based, mouse
Description: Western blot analysis and mass spectrometry. Western blot analysis was conducted using known procedures. Antibodies were used against ANXA1, β-catenin, caspase 3, Lrp5, Lrp6, Runx2, Sclerostin, Snail, TGFβ, NFATc1, cathepsin K (Cell Signaling, Danvers, MA, USA), DMP1, ANXA6, CXCL5 (Abcam, Cambridge, MA, USA), M-CSF, MMP9, OPN, TPM4 (Santa Cruz, Dallas, TX, USA), WISP1 (R&D systems, Minneapolis, MN, USA), β-actin (Sigma, Saint Louis, MO, USA), LIMA1, Trail (Novus, Centennial, CO, USA), p53 and CXCL1 (Invitrogen, Carlsbad, California, USA), and DSP (ProteinTech, Rosemont, IL, USA). The expression levels of Sclerostin and Lrp5 in CM were detected by ELISA (My BioSource, San Diego, CA, USA). Proteins from A5 osteocyte CM, Y4 osteocyte CM, and osteoclast control CM (RAW264.7 cells) were analyzed by the HF Hybrid Quadrupole Orbitrap mass spectrometry. Among 549 identified proteins, 49 proteins presented higher expression levels in A5 CM than Y4 CM and control CM. Among them, 11 proteins (p53; SPARC=osteonectin; TPM1, TPM4=tropomyosin 1 & 4; ANXA1, ANXA6=annexin A1 & A6; FMOD=fibromodulin; OGN=osteoglycin; DSP=desmoplakin; AHNAK=desmoyokin; and LIMA1=[…] domain actin-binding protein 1) were identified as potential tumor suppressors.
(§1) Western blot analysis and protein array analysis. Western blot analysis was conducted using the procedure previously described. Antibodies against Lrp5, Runx2, Snail, TGFβ, sclerostin, Calr, p-eIF2α, eIF2α (Cell Signaling, Danvers, MA, USA), LIF, Trail (Novus Biologicals, Centennial, CO, USA), MMP9, NFATc1, cathepsin K (Santa Cruz Biotechnology, Dallas, TX, USA), p53, CXCL2, Ppib (Invitrogen, Carlsbad, CA, USA), Hsp90ab1 (Abcam, Cambridge, UK), and β-actin (Sigma, Saint Louis, MO, USA) were used. A proteome profiler mouse XL cytokine array kit (R&D Systems, Minneapolis, MN, USA) was also employed, and the expression of 111 cytokines and chemokines in MSC-derived CM was determined.
Spheroid assay, plasmid transfection, and Western blot analysis. […]

[1] = tested on: tumor cells (MDA-MB-231, 4T1.2, EO771) vs non-tumor cells (MSCs, MLO-A5 osteocytes); assay: MTT-based tumor selectivity (MSC CMs, Calr, Ppib); type: cell-based; details: (reduction in MTT viability of tumor cells)/(reduction in non-tumor cells)
Description: Tumor-selective inhibition by MSC CMs and Calr. […] The inhibitory ratio was defined sing MTT-based viability as (reduction in MTT-based viability of tumor cells)/(reduction in MTT-based viability of non-tumor cells). […] Using three tumor cells (MDA-MB-231, 4T1.2, and EO771) and two non-tumor cells (MSCs, and MLO-A5 osteocytes), tumor selectivity for Lrp5 CM, Akt CM, Calr, and Ppib (FIG. 22) was determined. […] Akt CM also presented the tumor selectivity of 2.41±0.70.

[2] = tested on: 4T1.2 mammary tumor cells; assay: TRANSWELL invasion assay; type: cell-based, mouse
From the text: (§2) In vitro assays. Cellular viability was examined using an MTT assay (Invitrogen, Carlsbad, CA, USA) with the procedure previously described, as well as an EdU assay with a fluorescence-based cell proliferation kit (Thermo-Fisher, Waltham, MA, USA). The recombinant proteins employed included Filamin A, Pkm, Pdia3, Tpm4, Anxa2, Eef1a1, Cts1, Nme2, Dcn, Calr, Aldoa, Calm1, Tpm3, Ppib, Myh9, Ywhae, Hspa5, Hsp90aa1 (MBS962910, MBS8249600, MBS2010131, MBS145304, MBS2009095, MBS2033168, MBS143355, MBS145412, MBS2557309, MBS2009125, MBS8248528, MBS2018713, MBS144696, MBS2009092, MBS717396, MBS143242, MBS806904, MBS142709; MyBioSource, San Diego, CA, USA), Actin Gamma 1, Actn4, Hspa8, Vimentin (H00000071-P01, H00000081-P01, NBP1-30278, NBP2-35139; Novus, Littleton, CO, USA), and Hsp90ab1 (OPCA05157; Aviva system biology, San Diego, CA, USA). A TRANSWELL® chamber assay was conducted to detect invasive cellular motility, and a wound-healing scratch assay was utilized to evaluate 2-dimensional migratory behavior. The overexpression of Akt, Lrp5, β-catenin, Snail, Calr, and Ppib was conducted by transfecting plasmids (#10841, #115907, #31785, #31697, #51161, #36123; Addgene, Cambridge, MA, USA). […]

[3] = tested on: 4T1.2 mammary tumor cells; assay: EdU proliferation assay; type: cell-based, mouse
Description: EdU assay. Approximately 2,000 cells were seeded in 96-well plates on day 1. CM was added on day 2 and cellular proliferation was examined using a fluorescence-based cell proliferation kit (CLICK-IT™ EDU ALEXA FLUOR™ 488 Imaging Kit; Thermo-Fisher, Waltham, MA, USA) on day 4. After fluorescent labeling, the number of fluorescently labeled cells was counted and the ratio to the total number of cells was determined.
as §2, with “USA).” for “USA). A TRANSWELL® chamber assay was conducted to detect invasive cellular motility, and a wound-healing scratch assay was utilized to evaluate 2-dimensional migratory behavior. The overexpression of Akt, Lrp5, β-catenin, Snail, Calr, and Ppib was conducted by transfecting plasmids (#10841, #115907, #31785, #31697, #51161, #36123; Addgene, Cambridge, MA, USA).”

4T1.2 cells = assay: Western blot of proteins in treated tumor cells; type: cell-based, mouse
Description: as §1

[4] = tested on: 4T1.2 mammary tumor cells; assay: MTT viability assay; type: cell-based, mouse
From the text: as §2

B1: CXCL5: chemokine applied to EO771 cells (protein, UniProt P50228 41-132, looked up)
C-X-C motif chemokine 5: APSSVIAATELRCVCLTVTPKINPKLIANLEVIPAGPQCPTVEVIAKLKNQKEVCLDPEAPVIKKIIQKILGSDKKKAKRNALAVERTASVQ
With B1 as the molecule, how does the “tumor-promoting/tumorigenic proteins (Lrp5, MMP9, Runx2, TGFβ, Snail, IL1β etc.) in EO771 cells” value (EO771 cells) read?
Its value is “increased”.

B2: ANXA6: annexin A6 (protein, UniProt P14824 2-673, looked up)
Annexin A6: AKIAQGAMYRGSVHDFPEFDANQDAEALYTAMKGFGSDKESILELITSRSNKQRQEICQNYKSLYGKDLIEDLKYELTGKFERLIVNLMRPLAYCDAKEIKDAISGVGTDEKCLIEILASRTNEQMHQLVAAYKDAYERDLESDIIGDTSGHFQKMLVVLLQGTRENDDVVSEDLVQQDVQDLYEAGELKWGTDEAQFIYILGNRSKQHLRLVFDEYLKTTGKPIEASIRGELSGDFEKLMLAVVKCIRSTPEYFAERLFKAMKGLGTRDNTLIRIMVSRSELDMLDIREIFRTKYEKSLYSMIKNDTSGEYKKALLKLCGGDDDAAGQFFPEAAQVAYQMWELSAVSRVELKGTVCAANDFNPDADAKALRKAMKGIGTDEATIIDIVTHRSNAQRQQIRQTFKSHFGRDLMADLKSEISGDLARLILGLMMPPAHYDAKQLKKAMEGAGTDEKTLIEILATRTNAEIRAINEAYKEDYHKSLEDALSSDTSGHFRRILISLATGNREEGGENRDQAQEDAQVAAEILEIADTPSGDKTSLETRFMTVLCTRSYPHLRRVFQEFIKKTNYDIEHVIKKEMSGDVKDAFVAIVQSVKNKPLFFADKLYKSMKGAGTDEKTLTRVMVSRSEIDLLNIRREFIEKYDKSLHQAIEGDTSGDFMKALLALCGGED
Which “tumor-promoting/tumorigenic proteins (Lrp5, MMP9, Runx2, TGFβ, Snail, IL1β etc.) in EO771 cells” value (EO771 cells) does the source give for B2 here?
Its value is “reduced”.

B3: Calr: recombinant calreticulin (protein, UniProt P14211 18-416, looked up)
Calreticulin: DPAIYFKEQFLDGDAWTNRWVESKHKSDFGKFVLSSGKFYGDLEKDKGLQTSQDARFYALSAKFEPFSNKGQTLVVQFTVKHEQNIDCGGGYVKLFPSGLDQKDMHGDSEYNIMFGPDICGPGTKKVHVIFNYKGKNVLINKDIRCKDDEFTHLYTLIVRPDNTYEVKIDNSQVESGSLEDDWDFLPPKKIKDPDAAKPEDWDERAKIDDPTDSKPEDWDKPEHIPDPDAKKPEDWDEEMDGEWEPPVIQNPEYKGEWKPRQIDNPDYKGTWIHPEIDNPEYSPDANIYAYDSFAVLGLDLWQVKSGTIFDNFLITNDEAYAEEFGNETWGVTKAAEKQMKDKQDEEQRLKEEEEDKKRKEEEEAEDKEDDDDRDEDEDEEDEKEEDEEESPGQAKDEL
How did the tumor selectivity [1] turn out when B3 was run?
Its tumor selectivity is “higher tumor selectivity than Ppib”.

And the “TRANSWELL invasion of 4T1.2 cells” value [2]?
Its value is “significantly inhibited”.

What about the “EdU-based proliferation of 4T1.2 cells” value [3] of the same molecule?
Its value is “significantly inhibited”.

What about the “phosphorylation level of eIF2α in 4T1.2 cells” value (4T1.2 cells) of the same molecule?
Its value is “elevated”.

What about the “tumor-promoting genes (Lrp5, MMP9, Runx2, TGFβ, Snail) in 4T1.2 cells” value (4T1.2 cells; Western blot) of the same molecule?
The value was “suppressed”.

What about the “MTT-based viability of 4T1.2 cells” value [4] of the same molecule?
The value was “Significant reduction”.

B4: HSF1: HSF1 recombinant proteins (protein, UniProt P38532 1-525, looked up)
Heat shock factor protein 1: MDLAVGPGAAGPSNVPAFLTKLWTLVSDPDTDALICWSPSGNSFHVFDQGQFAKEVLPKYFKHNNMASFVRQLNMYGFRKVVHIEQGGLVKPERDDTEFQHPCFLRGQEQLLENIKRKVTSVSTLKSEDIKIRQDSVTRLLTDVQLMKGKQECMDSKLLAMKHENEALWREVASLRQKHAQQQKVVNKLIQFLISLVQSNRILGVKRKIPLMLSDSNSAHSVPKYGRQYSLEHVHGPGPYSAPSPAYSSSSLYSSDAVTSSGPIISDITELAPTSPLASPGRSIDERPLSSSTLVRVKQEPPSPPHSPRVLEASPGRPSSMDTPLSPTAFIDSILRESEPTPAASNTAPMDTTGAQAPALPTPSTPEKCLSVACLDKNELSDHLDAMDSNLDNLQTMLTSHGFSVDTSALLDLFSPSVTMPDMSLPDLDSSLASIQELLSPQEPPRPIEAENSNPDSGKQLVHYTAQPLFLLDPDAVDTGSSELPVLFELGESSYFSEGDDYTDDPTISLLTGTEPHKAKDPTVS
With B4 as the molecule, how does the “MTT-based viability of 4T1.2 cells” value [4] read?
The value was “reduced”.
